Source: patent US8653039 (INDIANA UNIVERSITY RESEARCH AND TECHNOLOGY CORPORA, dated 2014)
Where no end group is shown, it is not given here.

Tests used:
[1] = target: cancer specific isoform of proliferating cell nuclear antigen (caPCNA) (human) (UniProt P12004); test: capture ELISA, XPG-GST on the plate, cell extracts, detection with C20 anti-PCNA antibody
[2] = target: T1, cancer specific isoform of proliferating cell nuclear antigen (caPCNA) (human, UniProt P12004 1-261, acidic isoform; the filing says it differs from nmPCNA by post-translational modification, not by a genetic change; the residues are not stated); test: competition ELISA, caPCNAab on the plate, purified caPCNA, XPG peptide in increasing amounts
T1 construct: Native protein from MCF7 cell extract, nuclear extract or synthesome fraction, or 'isolated/purified caPCNA' in the ELISAs; also called csPCNA; ca(cs)PCNA
T1 sequence (P12004 whole entry, canonical isoform): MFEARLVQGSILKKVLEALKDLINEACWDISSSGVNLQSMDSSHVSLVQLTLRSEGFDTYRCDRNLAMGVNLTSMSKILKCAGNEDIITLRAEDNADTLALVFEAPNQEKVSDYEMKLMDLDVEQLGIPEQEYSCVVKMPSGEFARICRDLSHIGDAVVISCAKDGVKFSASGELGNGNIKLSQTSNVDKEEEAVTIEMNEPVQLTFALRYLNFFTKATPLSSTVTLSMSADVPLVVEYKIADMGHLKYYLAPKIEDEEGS
Description: The wells are washed and then incubated with a goat anti-PCNA antibody (C20) that recognizes the C-terminal 20 amino acids of PCNA. Bound C20 antibody is visualized with an alkaline phosphatase conjugated anti-goat IgG antibody, and bound antibody complex is visualized with […], and quantified by spectrophotometry. The competition experiments shown in this study involve the simultaneous incubation of the ca(cs)PCNA with increasing amounts of the antigenic peptide fragment of caPCNA (referred to as B1 or the PCNA aa126-133 peptide) in this assay.
The ELISA described herein was used to monitor the ability of two peptides to disrupt caPCNA binding to the bound caPCNA antibody. One peptide (H-Gly-Arg-Lys- […] OH) (SEQ ID NO: 29) corresponding to the p21cip/waf1 proteins site of interaction with PCNA was evaluated in this assay, and is shown to have no effect on the binding of caPCNA to the bound caPCNA antibody in this ELISA assay (FIG. 7). […] Therefore, the XPG peptide interacts with its recognized PCNA binding site in order to block binding of the PCNA protein to the caPCNA antibody. This happens if the epitope recognized by the antibody was masked by specifically binding this XPG peptide.

cancer specific isoform of proliferating cell nuclear antigen (caPCNA) (human), sequence (P12004 whole entry, canonical isoform): as above

fold colored product (absorbance at 405 nm), MCF7 extract against MCF10A extract [1] [fold] | binding result [2] | Binder
3 | – | LKQLDAQQTQLRIDSFFRLAQQEKEDAKR (peptide, UniProt P28715 981-1009, looked up, not shown: a dimerising Fc or GST, also: fused to GST, order of parts and linker not given here) [XPG-GST fusion protein]
– | binds | H-QTQLRIDSFFR-OH [XPG peptide corresponding to the XPG-PCNA interaction site of the XPG protein]
